Here are results for 4 molecules from article PMC5683654, “Interaction between the flagellar pocket collar and the hook complex via a novel microtubule-binding protein in Trypanosoma brucei” (PLoS Pathogens, 2017).

The target of assay [1] is BILBO1-Edge-Mut (K60A/K62A), bacterially expressed BILBO1-NTD’ (Trypanosoma brucei). Nature of the assay: ITC; 25°C, 20 mM Tris-HCl pH 8.0, 50 mM NaCl; 50 μM BILBO1-NTD’ in the cell titrated with 600 μM FPC4-B1BD; one-site binding model. On the technique in general: ITC needs no label: the signal is the heat of the interaction.
Assay [2] has as its target taxol-stabilised microtubules (polymerised tubulin). Description: co-sedimentation; microtubule binding assay; increasing concentrations of FPC4 fragment with 7.2 μM polymerised tubulin in PEMD, 1 h at 22°C, 16,100 g; pellets and supernatants on SDS-PAGE.
Assay [3] deals with T1, BILBO1-NTD’ (aa 1–120) (Trypanosoma brucei, UniProt Q382W6 1-120).
T1 construct: BILBO1 of Trypanosoma brucei, Tb927.11.12150, aa 1-120, cloned into pET-15b; also called TbBILBO1-NTD’; 6His-BILBO1-NTD’; source: E. coli, purified (Ni-HiTrap, tag removed with thrombin, Superdex-200); not shown: His6, N-terminal, cleaved
T1 sequence (looked up): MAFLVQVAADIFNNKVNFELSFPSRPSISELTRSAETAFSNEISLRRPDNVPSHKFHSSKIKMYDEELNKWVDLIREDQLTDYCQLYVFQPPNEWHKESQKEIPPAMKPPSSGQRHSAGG
Nature of the assay: ITC; 25°C, 20 mM Tris-HCl pH 8.0, 50 mM NaCl; 50 μM BILBO1-NTD’ in the cell titrated with 600 μM FPC4-B1BD; one-site binding model. The settings on record: both partners purified.

For assay [4], the target named is T1, BILBO1-NTD’ (aa 1–120). Nature of the assay: SEC-MALS; static light scattering on Superdex 200 10/300 GL; purified proteins mixed at molar ratio ~1:2, total 2 mg/ml, 30 min at room temperature. The note with it: both partners purified. For orientation: SEC sorts molecules by how far they enter the pores of the column.
The next assay concerns the target T2, FPC4-B1BD (aa 357–440) (Trypanosoma brucei, UniProt Q57YN8 357-440).
T2 chain: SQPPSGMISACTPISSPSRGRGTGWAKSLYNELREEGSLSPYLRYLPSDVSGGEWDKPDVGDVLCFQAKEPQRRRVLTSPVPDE
Nature of the assay: ITC.

By Kd is commonly meant the concentration at which binding is half-saturated. In assay [1], “FPC4-B1BD (aa 357–440) (from UniProt Q57YN8 357-440) (domain or fragment)” returned an equilibrium dissociation constant (Kd) of 18 µM.
For the molecule FPC4-1-260-6His (domain or fragment), in assay [2], the saturating concentration came out at 5.6 µM.

B1: FPC4-B1BD (aa 357–440) (domain or fragment, Trypanosoma brucei, UniProt Q57YN8 357-440, looked up)
chain: T2 chain
notes: FPC4 of Trypanosoma brucei, Tb927.8.6370, aa 357-440, cloned into the custom vector MalpET; also called TbFPC4-B1BD; MBP-tagged FPC4-B1BD; source: E. coli, purified (Ni-HiTrap, tag removed with TEV, Superdex-200); not shown: MBP, N-terminal, cleaved; His10, N-terminal, cleaved
A word on the stoichiometry N: it is a count of units in the complex or per binding partner. B1: in the assay with BILBO1-NTD’ (aa 1–120) [3], the equilibrium dissociation constant (Kd) is around 5 µM. In the assay with BILBO1-NTD’ (aa 1–120) [4], the “stoichiometry N” value was found to be 1.

B2: BILBO1-NTD’ (aa 1–120) (domain or fragment)
chain: T1 sequence (looked up)
As to B2, binding in the assay with FPC4-B1BD (aa 357–440) was characterised by a dissociation constant (Kd) of 5.4 µM.
